Assay results reported in article PMC4979867, “Reconstitution of the membrane protein OmpF into biomimetic block copolymer–phospholipid hybrid membranes” (Beilstein Journal of Nanotechnology, 2016).

Target: the molecule itself
Assay: SDS-PAGE of the unboiled sample; purified OmpF in 1% octyl-POE, sample not boiled before SDS-PAGE

B1: outer membrane protein OmpF from Escherichia coli (natural protein, UniProt P02931 23-362, looked up)
chain: AEIYNKDGNKVDLYGKAVGLHYFSKGNGENSYGGNGDMTYARLGFKGETQINSDLTGYGQWEYNFQGNNSEGADAQTGNKTRLAFAGLKYADVGSFDYGRNYGVVYDALGYTDMLPEFGGDTAYSDDFFVGRVGGVATYRNSNFFGLVDGLNFAVQYLGKNERDTARRSNGDGVGGSISYEYEGFGIVGAYGAADRTNLQEAQPLGNGKKAEQWATGLKYDANNIYLAANYGETRNATPITNKFTNTSGFANKTQDVLLVAQYQFDFGLRPSIAYTKSKAKDVEGIGDVDLVNYFEVGATYYFNKNMSTYVDYIINQIDSDNKLGVGSDDTVAVGIVYQF
notes: Outer membrane porin OmpF, Escherichia coli, native protein from strain B^E BL21(DE3)omp6 (lacks LamB and OmpC); no residues or identifiers printed; The protein here comes from an E. coli B strain, whose OmpF may differ from it at a few positions; also called native OmpF protein
stoichiometry N: 3
